The series deals with the molecule itself. The series can be described thus: SEC. For orientation: In gel filtration, larger molecules generally elute earlier.

B1: bacteriophage MS2 coat protein, wildtype (MS2[WT]) (natural protein)
chain: ASNFTQFVLVDNGGTGDVTVAPSNFANGVAEWISSNSRSQAYKVTCSVRQSSAQNRKYTIKVEVPKVATQTVGGVELPVAAWRSYLNMELTIPIFATNSDCELIVKAMQGLLKDGNPIPSAIAANSGIY
As for B1, the binding result is “binds”.

The values above are taken from doi:10.1101/2021.12.21.473721 (bioRxiv, 2021).
